# Experimental data published in article PMC10397247.
# Like-named read-outs stand apart in the source and are kept apart here.
# T1: P9bHq
# T1 chain: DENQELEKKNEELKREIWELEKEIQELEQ
# T2: P2-AA-12HAA-S
# T2 chain: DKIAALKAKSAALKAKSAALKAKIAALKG
# T3: P2-AA-12HAA-V
# T3 chain: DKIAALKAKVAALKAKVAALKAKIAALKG
# T4: P2-AA-12HAA-K
# T4 chain: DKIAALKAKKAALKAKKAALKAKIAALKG
# T5: P2-AA-12HAA-E
# T5 chain: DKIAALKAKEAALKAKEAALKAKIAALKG
# T6: P2-AA-12HAA-T
# T6 chain: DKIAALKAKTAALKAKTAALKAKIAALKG
# T7: P2-AA-12HAA-L
# T7 chain: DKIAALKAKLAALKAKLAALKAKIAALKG
# T8: P2-AA-12HAA-R
# T8 chain: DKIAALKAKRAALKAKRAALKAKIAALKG
# T9: P2-AA-12HAA-I
# T9 chain: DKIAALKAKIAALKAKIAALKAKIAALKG
# T10: P2-AA
# T10 chain: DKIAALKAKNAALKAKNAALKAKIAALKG
# T11: P2-AA-12HAA-D
# T11 chain: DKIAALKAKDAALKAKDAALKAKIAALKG
# T12: P2-AA-12HAA-H
# T12 chain: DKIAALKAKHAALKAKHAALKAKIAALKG
# T13: P2-AA-12HAA-Y
# T13 chain: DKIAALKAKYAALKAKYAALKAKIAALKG
# T14: 4H2985-AA
# T14 chain: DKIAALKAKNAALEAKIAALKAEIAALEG
# T15: 4H278-AA
# T15 chain: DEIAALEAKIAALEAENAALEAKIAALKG
# T16: 4H87-AA
# T16 chain: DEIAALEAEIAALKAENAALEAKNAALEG
# T17: 4H3134-AA
# T17 chain: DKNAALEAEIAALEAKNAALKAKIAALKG
# T18: 4H2873-AA
# T18 chain: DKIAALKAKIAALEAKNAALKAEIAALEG
# T19: 4H775-AA
# T19 chain: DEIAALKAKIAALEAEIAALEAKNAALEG
# T20: 4H510-AA
# T20 chain: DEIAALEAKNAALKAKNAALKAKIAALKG
# T21: 4H2758-AA
# T21 chain: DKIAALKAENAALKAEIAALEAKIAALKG
# T22: 4H3625-AA
# T22 chain: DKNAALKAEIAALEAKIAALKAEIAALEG
# T23: 4H390-AA
# T23 chain: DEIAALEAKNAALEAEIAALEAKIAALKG
# T24: 4H3940-AA
# T24 chain: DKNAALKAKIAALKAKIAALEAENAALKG
# T25: 4H816-AA
# T25 chain: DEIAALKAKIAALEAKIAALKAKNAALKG
# T26: 4H3409-AA
# T26 chain: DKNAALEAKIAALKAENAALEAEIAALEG
# T27: O5
# T27 chain: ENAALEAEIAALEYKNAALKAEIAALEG
# T28: O9
# T28 chain: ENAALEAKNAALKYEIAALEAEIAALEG
# T29: O8
# T29 chain: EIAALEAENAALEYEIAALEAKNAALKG
# T30: O7
# T30 chain: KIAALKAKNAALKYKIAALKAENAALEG
# T31: O6
# T31 chain: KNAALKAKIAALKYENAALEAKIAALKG
# T32: P2-AA-12HGe-W
# T32 chain: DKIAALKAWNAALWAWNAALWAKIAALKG
# T33: 4H741-bH
# T33 chain: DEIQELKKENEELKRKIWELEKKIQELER
# T34: 4H3277-bH
# T34 chain: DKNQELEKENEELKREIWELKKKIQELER
# T35: 4H2839-bH
# T35 chain: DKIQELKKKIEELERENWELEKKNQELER
# T36: 4H2915-bH
# T36 chain: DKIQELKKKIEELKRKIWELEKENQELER
# T37: 4H348-bH
# T37 chain: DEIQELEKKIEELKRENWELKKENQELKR
# T38: 4H40-bH
# T38 chain: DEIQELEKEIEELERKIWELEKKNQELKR
# T39: 4H492-bH
# T39 chain: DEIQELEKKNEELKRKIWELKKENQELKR
# T40: 4H3057-bH
# T40 chain: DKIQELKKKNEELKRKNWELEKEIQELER
# T41: 4H319-bH
# T41 chain: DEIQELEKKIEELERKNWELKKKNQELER
# T42: 4H477-bH
# T42 chain: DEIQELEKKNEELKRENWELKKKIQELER
# What was measured:
# P9bHq = biological target: T1, P9bHq; assay: two-hybrid library CCNG1;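 also: natural log of median RNA to DNA barcode read ratio; higher means stronger binding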
# P2-AA-12HAA-S = biological target: T2, P2-AA-12HAA-S; assay: two-hybrid library CCmax; settings: mean of both orientations;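 also: natural log of median RNA to DNA barcode read ratio; higher means stronger binding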
# P2-AA-12HAA-V = biological target: T3, P2-AA-12HAA-V; assay: two-hybrid library CCmax; settings: mean of both orientations;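 also: natural log of median RNA to DNA barcode read ratio; higher means stronger binding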
# P2-AA-12HAA-K = biological target: T4, P2-AA-12HAA-K; assay: two-hybrid library CCmax; settings: mean of both orientations;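 also: natural log of median RNA to DNA barcode read ratio; higher means stronger binding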
# P2-AA-12HAA-E = biological target: T5, P2-AA-12HAA-E; assay: two-hybrid library CCmax;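 also: natural log of median RNA to DNA barcode read ratio; higher means stronger binding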
# P2-AA-12HAA-T = biological target: T6, P2-AA-12HAA-T; assay: two-hybrid library CCmax; settings: mean of both orientations;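 also: natural log of median RNA to DNA barcode read ratio; higher means stronger binding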
# P2-AA-12HAA-L = biological target: T7, P2-AA-12HAA-L; assay: two-hybrid library CCmax
# P2-AA-12HAA-R = biological target: T8, P2-AA-12HAA-R; assay: two-hybrid library CCmax; settings: mean of both orientations
# P2-AA-12HAA-I = biological target: T9, P2-AA-12HAA-I; assay: two-hybrid library CCmax; settings: mean of both orientations
# P2-AA = biological target: T10, P2-AA; assay: two-hybrid library CCmax; settings: mean of both orientations
# P2-AA-12HAA-D = biological target: T11, P2-AA-12HAA-D; assay: two-hybrid library CCmax; settings: mean of both orientations
# P2-AA-12HAA-H = biological target: T12, P2-AA-12HAA-H; assay: two-hybrid library CCmax
# P2-AA-12HAA-Y = biological target: T13, P2-AA-12HAA-Y; assay: two-hybrid library CCmax; settings: mean of both orientations
# 4H2985-AA = biological target: T14, 4H2985-AA; assay: two-hybrid library CCmax; settings: mean of both orientations
# 4H278-AA = biological target: T15, 4H278-AA; assay: two-hybrid library CCmax; settings: mean of both orientations
# 4H87-AA = biological target: T16, 4H87-AA; assay: two-hybrid library CCmax; settings: mean of both orientations
# 4H3134-AA = biological target: T17, 4H3134-AA; assay: two-hybrid library CCmax; settings: mean of both orientations
# 4H2873-AA = biological target: T18, 4H2873-AA; assay: two-hybrid library CCmax; settings: mean of both orientations
# 4H775-AA = biological target: T19, 4H775-AA; assay: two-hybrid library CCmax; settings: mean of both orientations
# 4H510-AA = biological target: T20, 4H510-AA; assay: two-hybrid library CCmax; settings: mean of both orientations
# 4H2758-AA = biological target: T21, 4H2758-AA; assay: two-hybrid library CCmax
# 4H3625-AA = biological target: T22, 4H3625-AA; assay: two-hybrid library CCmax; settings: mean of both orientations
# 4H390-AA = biological target: T23, 4H390-AA; assay: two-hybrid library CCmax; settings: mean of both orientations
# 4H3940-AA = biological target: T24, 4H3940-AA; assay: two-hybrid library CCmax; settings: mean of both orientations
# 4H816-AA = biological target: T25, 4H816-AA; assay: two-hybrid library CCmax; settings: mean of both orientations
# 4H3409-AA = biological target: T26, 4H3409-AA; assay: two-hybrid library CCmax; settings: mean of both orientations
# O5 = biological target: T27, O5; assay: two-hybrid library CC0; settings: mean of both orientations
# O9 = biological target: T28, O9; assay: two-hybrid library CC0; settings: mean of both orientations
# O8 = biological target: T29, O8; assay: two-hybrid library CC0; settings: mean of both orientations
# O7 = biological target: T30, O7; assay: two-hybrid library CC0; settings: mean of both orientations
# O6 = biological target: T31, O6; assay: two-hybrid library CC0; settings: mean of both orientations
# P2-AA-12HGe-W = biological target: T32, P2-AA-12HGe-W; assay: two-hybrid library CCmax
# 4H741-bH = biological target: T33, 4H741-bH; assay: two-hybrid library CCNG1
# 4H3277-bH = biological target: T34, 4H3277-bH; assay: two-hybrid library CCNG1
# 4H2839-bH = biological target: T35, 4H2839-bH; assay: two-hybrid library CCNG1
# 4H2915-bH = biological target: T36, 4H2915-bH; assay: two-hybrid library CCNG1
# 4H348-bH = biological target: T37, 4H348-bH; assay: two-hybrid library CCNG1
# 4H40-bH = biological target: T38, 4H40-bH; assay: two-hybrid library CCNG1
# 4H492-bH = biological target: T39, 4H492-bH; assay: two-hybrid library CCNG1
# 4H3057-bH = biological target: T40, 4H3057-bH; assay: two-hybrid library CCNG1
# 4H319-bH = biological target: T41, 4H319-bH; assay: two-hybrid library CCNG1
# 4H477-bH = biological target: T42, 4H477-bH; assay: two-hybrid library CCNG1
Binder,interaction score (P2-AA-12HAA-S),interaction score (P2-AA-12HAA-V),interaction score (P2-AA-12HAA-K),interaction score (P2-AA-12HAA-E; mean of both orientations),interaction score (P2-AA-12HAA-T),interaction score (P2-AA-12HAA-L; mean of both orientations),interaction score (P2-AA-12HAA-R),interaction score (P2-AA-12HAA-I),interaction score (P2-AA),interaction score (P2-AA-12HAA-D),interaction score (P2-AA-12HAA-H; mean of both orientations),interaction score (P2-AA-12HAA-Y),other results
DENQELEKKNEELKREIWELEKEIQELEQ [P9bHq],,,,,,,,,,,,,interaction score (P9bHq): -0.654
DEIAALEAEHAALEAEHAALEAEIAALEG [P1-AA-12HAA-H],1.07,1.78,0.96,0.0438,1.16,1.83,-0.0784,1.75,1.85,-1.24,-0.35,-0.416,
DKIAALKAENAALKAEIAALEAKIAALKG [4H2758-AA],,,,,,,,,,,,,interaction score (4H2985-AA): 1.59; interaction score (4H278-AA): -0.138; interaction score (4H87-AA): -1.35; interaction score (4H3134-AA): 0.499; interaction score (4H2873-AA): -0.654; interaction score (4H775-AA): -0.652; interaction score (4H510-AA): 0.225; interaction score (4H2758-AA): 1.56; interaction score (4H3625-AA): -0.393; interaction score (4H390-AA): 0.895; interaction score (4H3940-AA): -1.45; interaction score (4H816-AA): -1.38; interaction score (4H3409-AA): -0.325
ENAALEAEIAALEYKNAALKAEIAALEG [O5],,,,,,,,,,,,,interaction score (O5): -2.78; interaction score (O9): -2.73; interaction score (O8): -2.47; interaction score (O7): -2.67; interaction score (O6): 1.41
DEIAALEAEDAALEAEDAALEAEIAALEG [P1-AA-12HAA-D],0.438,-0.204,0.46,-1.33,-1.11,-1.19,1.84,-0.345,-0.884,-1.35,0.205,-1.44,interaction score (P2-AA-12HGe-W): -2.4
DKIQELKKKIEELERENWELEKKNQELER [4H2839-bH],,,,,,,,,,,,,interaction score (4H741-bH): -0.868; interaction score (4H3277-bH): -1.06; interaction score (4H2839-bH): 1.04; interaction score (4H2915-bH): 0.242; interaction score (4H348-bH): 0.581; interaction score (4H40-bH): 0.0596; interaction score (4H492-bH): -0.474; interaction score (4H3057-bH): 0.0652; interaction score (4H319-bH): 1.44; interaction score (4H477-bH): -0.629
DEIAALEAEAAALEAEAAALEAEIAALEG [P1-AA-12HAA-A],1.55,1.9,1.48,0.947,1.66,1.84,0.883,1.82,1.79,-0.675,2.14,2,
DEIAALEAEIAALEAEIAALEAEIAALEG [P1-AA-12HAA-I],2.16,1.79,1.78,1.58,1.75,2.28,2,2.05,1.8,1.29,,1.87,interaction score (P2-AA-12HAA-H): 1.79

# More lines, main results first:
interaction score (P2-AA-12HAA-S),interaction score (P2-AA-12HAA-V),interaction score (P2-AA-12HAA-K),interaction score (P2-AA-12HAA-E; mean of both orientations),interaction score (P2-AA-12HAA-T),interaction score (P2-AA-12HAA-L; mean of both orientations),interaction score (P2-AA-12HAA-R),interaction score (P2-AA-12HAA-I),interaction score (P2-AA),interaction score (P2-AA-12HAA-D),interaction score (P2-AA-12HAA-H; mean of both orientations),interaction score (P2-AA-12HAA-Y),Binder,other results
1.44,1.37,-0.626,0.85,0.243,1.95,-1.34,1.45,1.8,-0.753,0.326,0.106,DEIAALEAERAALEAERAALEAEIAALEG [P1-AA-12HAA-R],
1.44,2.21,1.35,,1.86,,1.69,1.82,2.1,1.1,1.25,1.8,DEIAALEAEVAALEAEVAALEAEIAALEG [P1-AA-12HAA-V],interaction score (P2-AA-12HAA-E): 1.83; interaction score (P2-AA-12HAA-L): 1.78
